Source: PMC6872938

Key:
[1] = biological target: His6-tagged HzTransib transposase (Transib transposase from Helicoverpa zea), residues 17-507 (Helicoverpa zea); test: SEC-MALS
[2] = biological target: MBP-tagged HzTransib transposase (Transib transposase from Helicoverpa zea), residues 17-507 (Helicoverpa zea); test: SEC-MALS

| Substance | stoichiometry N [1] | stoichiometry N [2] |
| --- | --- | --- |
| His6-tagged HzTransib transposase (Transib transposase from Helicoverpa zea), residues 17-507 (enzyme) | 2 | – |
| MBP-tagged HzTransib transposase (Transib transposase from Helicoverpa zea), residues 17-507 (enzyme) | – | 2 |
